Values belong to the binder of their own block, whether it stands above or below them.
Columns and labels:
[1] = target: T1, CD3e subunit of the T cell receptor on human T cells (human, UniProt P07766 23-207); assay: cell-based or functional assay
[2] = target: T1, CD3e subunit of the T cell receptor on …; assay: cell-based or functional assay; remark: listed apart in the source

T1 sequence (P07766 23-207): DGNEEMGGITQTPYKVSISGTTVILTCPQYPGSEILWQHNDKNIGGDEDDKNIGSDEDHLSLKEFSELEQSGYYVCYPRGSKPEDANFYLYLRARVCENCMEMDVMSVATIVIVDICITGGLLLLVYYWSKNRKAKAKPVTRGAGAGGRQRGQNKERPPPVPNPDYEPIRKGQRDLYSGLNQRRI

- EC50 of NFκB-luciferase reporter activation, Jurkat/NFκBLuc cells; in absence of target cells [1]: 0.21 µg/mL
- EC50 of T cell activation (CD69+/CD25+), human PBMC Donor 1; column head: in absence of target cells [1]: 0.526 µg/mL
- EC50 of T cell activation (CD69+/CD25+), human PBMC Donor 2; column head: in absence of target cells [1]: 0.169 µg/mL
B1: purified anti-CD3 homodimer (product-related impurity isolated from the αCD20/αCD3 TDB purification process) (antibody, V domains shown)
VH: EVQLVQSGAEVKKPGASVKVSCKASGYTFTNYYIHWVRQAPGQGLEWIGWIYPGDGNTKYNEKFKGRATLTADTSTSTAYLELSSLRSEDTAVYYCARDSYSNYYFDYWGQGTLVTVSS
VL: DIVMTQSPDSLAVSLGERATINCKSSQSLLNSRTRKNYLAWYQQKPGQPPKLLIYWASTRESGVPDRFSGSGSGTDFTLTISSLQAEDVAVYYCTQSFILRTFGQGTKVEIK

- luciferase activity of Jurkat/NFκBLuciferase clone 2 in the presence of a CD20 expressing target cell line, relative to anti-CD3 homodimer [2]: 1000 fold
- EC50 of NFκB-luciferase reporter activation, Jurkat/NFκBLuc cells; in presence of target cells [1]: 0.0013 µg/mL
- EC50 of T cell activation (CD69+/CD25+), human PBMC Donor 1; in presence of target cells [1]: 0.0055 µg/mL
- EC50 of T cell activation (CD69+/CD25+), human PBMC Donor 2; in presence of target cells [1]: 0.0044 µg/mL
B2: αCD20/αCD3 TDB (T cell dependent bispecific antibody; anti-CD20 Mab2 / anti-CD3 Mab1) (bispecific antibody, V domains shown)
VH 1: EVQLVESGGGLVQPGGSLRLSCAASGYTFTSYNMHWVRQAPGKGLEWVGAIYPGNGDTSYNQKFKGRFTISVDKSKNTLYLQMNSLRAEDTAVYYCARVVYYSNSYWYFDVWGQGTLVTVSS
VL 1: DIQMTQSPSSLSASVGDRVTITCRASSSVSYMHWYQQKPGKAPKPLIYAPSNLASGVPSRFSGSGSGTDFTLTISSLQPEDFATYYCQQWSFNPPTFGQGTKVEIKR
VH 2: B1 VH
VL 2: B1 VL

— US12007398
